From paper PMC8643700

Biological target: Cas9wt (SpCas9) (Streptococcus pyogenes, UniProt Q99ZW2 1-1368)
Test: single-molecule magnetic tweezers

Chain of Cas9wt (SpCas9) (Q99ZW2 whole entry): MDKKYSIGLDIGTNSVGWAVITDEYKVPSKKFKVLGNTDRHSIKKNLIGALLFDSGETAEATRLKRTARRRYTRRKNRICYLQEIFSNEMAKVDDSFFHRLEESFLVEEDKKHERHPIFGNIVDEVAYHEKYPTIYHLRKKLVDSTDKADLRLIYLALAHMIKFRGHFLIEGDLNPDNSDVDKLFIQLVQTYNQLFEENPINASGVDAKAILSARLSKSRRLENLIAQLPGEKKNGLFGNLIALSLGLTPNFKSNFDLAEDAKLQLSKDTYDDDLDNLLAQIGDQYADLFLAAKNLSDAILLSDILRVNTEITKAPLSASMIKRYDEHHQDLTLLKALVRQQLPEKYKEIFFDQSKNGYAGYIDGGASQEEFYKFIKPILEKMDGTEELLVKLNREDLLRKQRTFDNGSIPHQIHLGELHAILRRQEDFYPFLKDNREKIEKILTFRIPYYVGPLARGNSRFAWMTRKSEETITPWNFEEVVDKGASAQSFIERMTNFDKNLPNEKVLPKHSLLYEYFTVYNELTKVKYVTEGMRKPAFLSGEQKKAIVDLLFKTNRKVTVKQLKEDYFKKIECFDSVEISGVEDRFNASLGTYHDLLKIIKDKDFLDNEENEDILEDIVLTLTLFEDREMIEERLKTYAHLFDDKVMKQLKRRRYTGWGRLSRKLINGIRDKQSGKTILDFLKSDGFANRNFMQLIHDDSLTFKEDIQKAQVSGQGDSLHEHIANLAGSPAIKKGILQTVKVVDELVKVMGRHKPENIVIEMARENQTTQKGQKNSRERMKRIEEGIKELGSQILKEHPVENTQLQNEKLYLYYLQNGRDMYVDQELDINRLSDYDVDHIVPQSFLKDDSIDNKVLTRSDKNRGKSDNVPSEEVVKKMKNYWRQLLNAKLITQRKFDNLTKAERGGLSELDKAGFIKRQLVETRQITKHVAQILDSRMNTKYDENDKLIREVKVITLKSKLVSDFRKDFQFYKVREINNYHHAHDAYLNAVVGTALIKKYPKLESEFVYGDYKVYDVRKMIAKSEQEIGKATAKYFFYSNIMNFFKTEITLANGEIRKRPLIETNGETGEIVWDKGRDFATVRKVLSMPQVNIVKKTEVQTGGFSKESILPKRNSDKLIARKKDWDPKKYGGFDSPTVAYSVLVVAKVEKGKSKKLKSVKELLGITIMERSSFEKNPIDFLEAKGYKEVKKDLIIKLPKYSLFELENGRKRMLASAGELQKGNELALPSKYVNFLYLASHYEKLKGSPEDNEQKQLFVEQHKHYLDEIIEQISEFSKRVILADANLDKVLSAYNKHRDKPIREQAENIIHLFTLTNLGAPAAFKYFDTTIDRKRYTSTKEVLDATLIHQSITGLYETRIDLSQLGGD

B1: sgRNA MT + 2.7 kb DNA with FM protospacer (mixed)
RNA: GAGCGAUACACAUGAGACGCGUUUUAGAGCUAGAAAUAGCAAGUUAAAAUAAGGCUAGUCCGUUAUCAACUUGAAAAAGUGGCACCGAGUCGGUGCUUUUU
B1: binds.
